Measurements taken from the supplement of paper PMC9170038.

System: MS2 coat protein
Assay: apparent KD of MS2 coat protein; designed switch direction (-1 OFF switch, 1 ON switch): -1; higher = weaker reporter binding
Method in brief: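 The apparent KD reported per design is the median over clusters of curve fits to normalised cluster fluorescence. The RNA switches were transcribed on Illumina chips by stalled E. coli RNA polymerase. SNAP-549-labelled MS2 coat protein was titrated from 0.7 or 1.5 nM, doubling up to 3 µM, in Tris-HCl pH 7.5 buffer containing KCl, MgCl2, BSA, DTT, tRNA and Tween-20, with no input, 200 uM small-molecule ligand, or an oligonucleotide input.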

[1] = input ligand: microRNA oligo, concentration not stated
[2] = Eterna round: R95, input ligand: microRNA oligo, concentration not stated
[3] = Eterna round: R95, input ligand: FMN 200 uM
[4] = Eterna round: R95, input ligand: none

| Sequence | apparent KD of MS2 coat protein (input ligand: FMN 200 uM) [nM] | apparent KD of MS2 coat protein [1] [nM] | apparent KD of MS2 coat protein (input ligand: none) [nM] | apparent KD of MS2 coat protein [2] [nM] | apparent KD of MS2 coat protein [3] [nM] | apparent KD of MS2 coat protein [4] [nM] |
| --- | --- | --- | --- | --- | --- | --- |
| AAAAAAAACAAGCUUAGGGACAUGAGGAUCACCCAUGUUCGUCUUAUAAAAAUAAAAAUAAAAAACAAAAAAUAAAA [Sensor V2: 53] (Eterna round: R96, puzzle: Sensor v2, turn-off variant) | 22.5 | 128 | 24.1 | – | – | – |
| AAAAAAAGACAAGAGGAGAAUCGUCUUAAAAAUCCUCAGACAUGAGGAUCACCCAUGUAAAAUGAUCGAAAGAUCAA [Mat - Sensor v2 - ver2 - JL mod - D42] (Eterna round: R96, puzzle: Sensor v2, turn-off variant 2) | 39.7 | 40 | 40.6 | – | – | – |
| AAAAAACAAGCUUUUUGAAACAUGAGGAUCACCCAUGUCUUAUAAAAUAAAAAUAAAAAUAAAAAUAAAAUAAAAAA [Sensor V2: 80 Random] (Eterna round: R96, puzzle: Sensor v2, turn-off variant) | 36.2 | 67.9 | 37.4 | – | – | – |
| AAAAAACAAGGAUAUACGAAGGAUGGUUAUCUUAAUUUUUGACAUGAGGAUCACCCAUGUAGAAGGUGUUAAAA [JR_Exclusion2_Sub010] (puzzle: Exclusion 2) | – | – | – | 34.8 | – | – |
| AAAAAACAUGAGGAUCACCCAUGUAAGGAUAUCUAAAAUAAAAGAAAAAUAAAGAAAAGGAGAAGGUACAAGGA [JL wbt mod 25] (Eterna round: R96, puzzle: Exclusion 1) | 32.5 | 23.4 | 29.8 | – | – | – |
| AAAAAACAUGAGGAUCACCCAUGUGAGGAUAUGCUAAAAAAAUCCGCAUGAAAAAAUAGCAGAAGGCACAUAAA [PK2] (Eterna round: R96, puzzle: Exclusion 1) | 93.5 | 27.2 | 36.2 | – | – | – |
| AAAAAGCUGAGAGGAUAUGGUGCCGAAACGGUGCUAGAAGGCUUUGCAAAAAAACAUGAGGAUCACCCAUGUUCAUGUAGAGAA [AK ExNG1-1.2] (Eterna round: R96, puzzle: Exclusion NG 1) | 15.8 | 11.8 | 19.6 | – | – | – |
| AAAACACAUGAGGAUCACCCAUGUGAGGAUAUGUCCAUAUUCGGCAAAUCGGAUAUGGACAGAAGGCACAUAAA [JR_Exclusion1_Sub014] (puzzle: Exclusion 1) | – | – | – | 48.9 | 54.7 | 39.7 |
| AAAACGUCAGGAUAUCCAAUAUAUGACAUGAGGAUCACCCAUGUUUCCACUCGUACCUCCGGAGAAGGGACUAAUA [Ex5 #84] (Eterna round: R97, puzzle: Exclusion 5) | 34.7 | – | 38.2 | – | – | – |
| AAAACGUGAGGAUAUACUGUGAGAUCUCAAGGUACGUUAAGACAUGAGGAUCACCCAUGUAGAAGGCGCCAAAA [Eternabot (Original) Solution 15] (Eterna round: R97, puzzle: Exclusion 2) | 57.3 | – | 30.9 | – | – | – |
| AAAACUGCCCAUAACCGCAAGCUUUUUGCUUGUCUUACCACAUGAGGAUCACCCAUGUGACAUGGGCUCCUUAUAAA [Arixeerat] (puzzle: Sensor v3, turn-off variant 2) | – | – | – | 8.53 | 14.1 | 12 |
| AAAACUGCCCAUGACCGCAAGCUUUUUGCUUGUCUUACCACAUGAGGAUCACCCAUGUGUCAUGGGCUCCUUAUAAA [Tisoanor] (puzzle: Sensor v3, turn-off variant 2) | – | – | – | 10.8 | 12.7 | 11.3 |
| AAAAGAGGAGGAUAUGCAAACAAUGUAAAAGUGAAAGUAAAACAUGAGGAUCACCCAUGUAGAAGGCCUGAAAA [nah] (puzzle: Exclusion 2) | – | – | – | 20.4 | 20 | 20.2 |
| AAAAGGAUAGGAUAUGCUCUAGGACACUUGAGGAUCACCCAAGUGUCGGCAAGGUCCUAGGCAGAAGGAUCUGGCA [Onordibi] (Eterna round: R97, puzzle: Exclusion 5) | 88.3 | – | 29.9 | – | – | – |
